Assay results: patent US10487147B2, “Anti-PD-L1 antibodies and uses thereof” (Merck Patent GmbH, priority 2011, dated 2019)

Experiments:
[1] = test system: MC38 colon carcinoma cells; assay: Combination with low dose cyclophosphamide in MC38 subcutaneous tumor model; assay type: in vivo, mice; conditions: CPA 100 mg/kg or A09-246-2 100 μg
Description: Low-dose CPA is known to enhance anti-tumor immune responses through the inhibition of immunosuppressive regulatory T cells. […] Mice were inoculated […] in the right flank with 1×10^6 MC38 colon carcinoma cells. When tumors reached a mean volume of ˜50 mm^3, mice were sorted into treatment groups (N=14) on day 0. […] Using an ELISPOT assay, the effects of treatment on the magnitude of CD8^+ T cell responses directed against the well-characterized p15E tumor antigen were measured.

PANC02 cells = assay: Combination with Gemcitabine in the PANC02 orthotopic model; conditions: GEM 150 mg/kg or A09-246-2 400 μg per mouse alone
[2] = Fluorescence monitored thermal unfolding assay of wild type and mutant PD-L1 proteins; assay type: physicochemical; conditions: temperature midpoint of fluorescently monitored thermal denaturation of the PD-L1 antigen protein
From the text: As the temperature increases, thermal denaturation of the protein exposes the hydrophobic core residues and this can be monitored by an increase in fluorescence of the dye. […] The data ware fit to equation 1 (adapted from Bullock, A. N. et al. Thermodynamic stability of wild-type and mutant p53 core domain. PNAS 94, 14338-14342 (1997)) to determine the temperature at the inflection point of the curve (T1/2).

[3] = Analytical size exclusion chromatography of wild type and mutant PD-L1 proteins; assay type: physicochemical; conditions: qualitative appearance of the PD-L1 antigen protein on size exclusion chromatography

Row | Molecule | T1/2 [2] | also measured
1 | O=P1(N(CCCl)CCCl)NCCCO1 (centres unmarked) [CPA, cyclophosphamide] |  | p15E-reactive CD8+ T cells (ELISPOT), single agent [1]: ~100 spots
2 | Nc1ccn([C@@H]2O[C@H](CO)[C@@H](O)C2(F)F)c(=O)n1 [GEM, Gemcitabine] |  | survival time, monotherapy (PANC02 cells): failed to extend survival time
3 | A51Q: PD-L1 point mutant antigen expressed in HEK cells [Antibody A51Q] | 57.3 +/− 0.6 °C | 
4 | A52R: PD-L1 point mutant antigen expressed in HEK cells [Antibody A52R] | 55.2 °C | 
5 | A109E: PD-L1 point mutant antigen expressed in HEK cells [Antibody A109E] | 54.0 °C | 
6 | A121R: PD-L1 point mutant antigen expressed in HEK cells [Antibody A121R] | 54.0 +/− 0.5 °C | 
7 | D26A: PD-L1 point mutant antigen expressed in HEK cells [Antibody D26A] | 52.8 +/− 0.2 °C | 
8 | D49A: PD-L1 point mutant antigen expressed in HEK cells [Antibody D49A] | BP (>49) ° C. | 
9 | D61A: PD-L1 point mutant antigen expressed in HEK cells [Antibody D61A] | 52.0 °C | 
10 | D73A: PD-L1 point mutant antigen expressed in HEK cells [Antibody D73A] | 53.5 +/− 2.1 °C | 
11 | E45A: PD-L1 point mutant antigen expressed in HEK cells [Antibody E45A] | 58.0 °C | 
12 | E58A: PD-L1 point mutant antigen expressed in HEK cells [Antibody E58A] | 54.6 +/− 0.6 °C | 
13 | E60A: PD-L1 point mutant antigen expressed in HEK cells [Antibody E60A] | 50.4 °C | 
14 | E71A: PD-L1 point mutant antigen expressed in HEK cells [Antibody E71A] | 52.8 +/− 1.5 °C | 
15 | H78A: PD-L1 point mutant antigen expressed in HEK cells [Antibody H78A] | 56.6 +/− 0.6 °C | 
16 | I54A: PD-L1 point mutant antigen expressed in HEK cells [Antibody I54A] | 57.2 +/− 2.5 °C | 
17 | I54K: PD-L1 point mutant antigen expressed in HEK cells [Antibody I54K] | 57.2 °C | 
18 | K46A: PD-L1 point mutant antigen expressed in HEK cells [Antibody K46A] | 51.6 °C | 
19 | K75A: PD-L1 point mutant antigen expressed in HEK cells [Antibody K75A] | 57.7 +/− 1.8 °C | 
20 | K105A: PD-L1 point mutant antigen expressed in HEK cells [Antibody K105A] | 57.0 +/− 1.5 °C | 
21 | K124A: PD-L1 point mutant antigen expressed in HEK cells [Antibody K124A] | 53.1 +/− 0.6 °C | 

Row | Molecule | T1/2 [2] | also measured
22 | K129A: PD-L1 point mutant antigen expressed in HEK cells [Antibody K129A] | 50.8 +/− 1.2 °C | 
23 | L27A: PD-L1 point mutant antigen expressed in HEK cells [Antibody L27A] | 51.7 +/− 0.5 °C | 
24 | M115A: PD-L1 point mutant antigen expressed in HEK cells [Antibody M115A] | 51.4 +/− 0.1 °C | 
25 | Q107A: PD-L1 point mutant antigen expressed in HEK cells [Antibody Q107A] | 58.6 +/− 2.0 °C | SEC [3]: M/T
26 | R82A: PD-L1 point mutant antigen expressed in HEK cells [Antibody R82A] | 51.2 +/− 0.4 °C | 
27 | R113A: PD-L1 point mutant antigen expressed in HEK cells [Antibody R113A] | 56.7 °C | 
28 | R125A: PD-L1 point mutant antigen expressed in HEK cells [Antibody R125A] | 51.8 +/− 0.2 °C | 
29 | S79A: PD-L1 point mutant antigen expressed in HEK cells [Antibody S79A] | 56.3 +/− 0.9 °C | 
30 | S79E: PD-L1 point mutant antigen expressed in HEK cells [Antibody S79E] | 60.0 °C | 
31 | S80A: PD-L1 point mutant antigen expressed in HEK cells [Antibody S80A] | 57.0 °C | 
32 | S80E: PD-L1 point mutant antigen expressed in HEK cells [Antibody S80E] | 56.8 +/− 4.5 °C | 
33 | S117A: PD-L1 point mutant antigen expressed in HEK cells [Antibody S117A] | 52.7 +/− 0.3 °C | 
34 | T20A: PD-L1 point mutant antigen expressed in HEK cells [Antibody T20A] | 52.5 +/− 0.2 °C | 
35 | T127A: PD-L1 point mutant antigen expressed in HEK cells [Antibody T127A] | 51.4 +/− 0.0 °C | 
36 | T127K: PD-L1 point mutant antigen expressed in HEK cells [Antibody T127K] | 54.0 °C | 
37 | V68R: PD-L1 point mutant antigen expressed in HEK cells [Antibody V68R] | 56.0 °C | SEC [3]: M/T
38 | V76A: PD-L1 point mutant antigen expressed in HEK cells [Antibody V76A] | 55.7 °C | 
39 | V111A: PD-L1 point mutant antigen expressed in HEK cells [Antibody V111A] | 50.2 +/− 0.2 °C | 
40 | V111E: PD-L1 point mutant antigen expressed in HEK cells [Antibody V111E] | 51.6 +/− 0.0 °C | 
41 | Y56A: PD-L1 point mutant antigen expressed in HEK cells [Antibody Y56A] | 57.5 +/− 0.7 °C | 
42 | Y56K: PD-L1 point mutant antigen expressed in HEK cells [Antibody Y56K] | 55.4 +/− 1.3 °C | 
